Series [1] addresses T1, MBP-NtKRP-Motor (Nicotiana tabacum, UniProt A0A0D3QSP8).
T1 construct: gene KRP; MBP-tagged motor domain, purified; motor 1-556 elsewhere
T1 sequence (A0A0D3QSP8 55-470 limits assumed): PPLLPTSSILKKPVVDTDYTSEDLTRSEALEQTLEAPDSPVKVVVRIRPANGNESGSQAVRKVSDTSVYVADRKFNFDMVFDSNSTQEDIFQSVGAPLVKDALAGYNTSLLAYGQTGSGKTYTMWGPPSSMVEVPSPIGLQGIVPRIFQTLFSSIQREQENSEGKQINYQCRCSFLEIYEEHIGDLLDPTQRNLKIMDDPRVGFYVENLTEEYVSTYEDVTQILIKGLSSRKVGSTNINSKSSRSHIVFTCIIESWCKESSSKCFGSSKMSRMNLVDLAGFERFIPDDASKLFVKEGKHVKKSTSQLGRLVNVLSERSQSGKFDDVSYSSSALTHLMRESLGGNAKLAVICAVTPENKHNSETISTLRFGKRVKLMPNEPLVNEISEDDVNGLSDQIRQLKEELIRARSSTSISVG
Description: microtubule co-sedimentation, SDS-PAGE. The class given is binding. Conditions: taxol-stabilised microtubules, PEM buffer with 1 mM MgCl2, pH 6.8; nucleotide 5 µM.

The target of series [2] is microtubules (polymerized tubulin, taxol-stabilised). Nature of the series: co-sedimentation; 100 uL with 25 ug taxol-stabilised MTs and 50 ug NtKRP-motor in PEM buffer pH 6.8; without nucleotide, with ATP or with AMPPNP; room temperature 30 min, 25,000 x g 20 min at 25 C; SDS-PAGE of supernatant and pellet, Coomassie.
Series [3] has the same target.
Substrate in series [4]: Nc1ncnc2c1ncn2[C@@H]1O[C@H](COP(=O)(O)OP(=O)(O)OP(=O)(O)O)[C@@H](O)[C@H]1O
Nature of the series: isothermal titration calorimetry ATPase assay. The class given is biochemical, Nicotiana tabacum. Conditions: microtubules 4.4 µM (Methods print 1.67 µM MTs), 10 µM taxol, BRB80 with 1 mM MgCl2, 50 mM NaCl, pH 6.8, 25 °C. In general terms: ITC needs no label: the signal is the heat of the interaction.

Consider `Nc1ncnc2c1ncn2[C@@H]1O[C@H](COP(=O)(O)OP(=O)(O)NP(=O)(O)O)[C@@H](O)[C@H]1O` [AMPPNP], for which the “microtubule co-sedimentation, SDS-PAGE” value in series [1] is reported as “nonhydrolyzable ATP analog AMPPNP was used in place of ATP, most of the fusion protein”. `Nc1ncnc2c1ncn2[C@@H]1O[C@H](COP(=O)(O)OP(=O)(O)OP(=O)(O)O)[C@@H](O)[C@H]1O` [ATP]: the “microtubule co-sedimentation, SDS-PAGE” value in series [1] was “The addition of ATP significantly reduced the amount of the fusion protein co-sediment”. In the case of “MBP-NtKRP motor domain fusion protein (domain or fragment)”, in series [2], the percent coprecipitated with MTs (absence of ATP) was determined as 50%. The molecule “recombinant NtKRP motor domain (amino acids 1–556) (domain or fragment)” registered a K0.5,MT of the MT-stimulated ATPase activity of the motor domain (coupled enzyme assay, 1 mM ATP, 0-5 uM MTs) in series [3] of 22 µM.

B1: NtKRP motor domain (recombinant motor protein, amino acids 1–556) (Nicotiana tabacum) (protein)
chain: MSENRFLGNISASSIRNLLPKSVSTKKKLNSSRFKHKMNSENVAPIDPNIQITDPPLLPTSSILKKPVVDTDYTSEDLTRSEALEQTLEAPDSPVKVVVRIRPANGNESGSQAVRKVSDTSVYVADRKFNFDMVFDSNSTQEDIFQSVGAPLVKDALAGYNTSLLAYGQTGSGKTYTMWGPPSSMVEVPSPIGLQGIVPRIFQTLFSSIQREQENSEGKQINYQCRCSFLEIYEEHIGDLLDPTQRNLKIMDDPRVGFYVENLTEEYVSTYEDVTQILIKGLSSRKVGSTNINSKSSRSHIVFTCIIESWCKESSSKCFGSSKMSRMNLVDLAGFERFIPDDASKLFVKEGKHVKKSTSQLGRLVNVLSERSQSGKFDDVSYSSSALTHLMRESLGGNAKLAVICAVTPENKHNSETISTLRFGKRVKLMPNEPLVNEISEDDVNGLSDQIRQLKEELIRARSSTSISVGSNGYFRGPNVRESLNQLRVSLNRSLILPSIDNDREEEIHINEDDIKELQLQIDNLRGSHGDNSKETLEKKDSLKYSSGESEHYLSC
notes: N-terminal motor domain fragment, residues 1-556 of 1194 (full length 134 kDa); recombinant
What is called Km is the substrate concentration at which the rate is half of its maximum. Broadly, the kcat is the maximal rate divided by the concentration of active sites. Regarding B1, in series [4], the Km worked out at 2.4 µM and the kcat came out at 80.3 s⁻¹.

Values taken from publication PMC5078848, “NtKRP, a kinesin-12 protein, regulates embryo/seed size and seed germination via involving in cell cycle progression at the G2/M transition” (Scientific Reports, 2016).
